According to patent US20220041721A1 (WUHAN YZY BIOPHARMA, published 2022):
Where a chain is given by its changes, count along the chain named. Names and notes keep the numbering of the source.

B1: Y150-F8-1 (bispecific antibody, human IgG1, kappa)
scFv: EVQLVESGGGLVQPKGSLKLSCAASGFTFNTYAMNWVRQAPGKGLEWVARIRSKYNNYATYYADSVKDRFTISRDDSQSILYLQMNNLKTEDTAMYYCVRHGNFGNSYVSWFAYWGQGTLVTVSSGGGGSGGGGSGGGGSQAVVTQESALTTSPGETVTLTCRSSTGAVTTSNYANWVQEKPDHLFTGLIGGTNKRAPGVPARFSGSLIGDKAALTITGAQTEDEAIYFCALWYSNLWVFGGGTKLTVLGDGDGSDKTHTCPPCPAPEFEGGPSVFLFPPKPKDTLMISRTPEVTCVVVDVSHEDPEVKFNWYVDGVEVHNAKTKPREEQYNSTYRVVSVLTVLHQDWLNGKEYKCKVSNKALPASIEKTISKAKGQPREPQVCTLPPSRDELTKNQVSLSCAVKGFYPSDIAVEWESNGQPENNYKTTPPVLDSDGSFFLVSKLTVDKSRWQQGNVFSCSVMHEALHNHYTQKSLSLSPGK
heavy: EVQLLESGGGLVQPGGSLRLSCAVSGFTFNSFAMSWVRQAPGKGLEWVSAISGSGGGTYYADSVKGRFTISRDNSKNTLYLQMNSLRAEDTAVYFCAKDKILWFGEPVFDYWGQGTLVTVSSASTKGPSVFPLAPSSKSTSGGTAALGCLVKDYFPEPVTVSWNSGALTSGVHTFPAVLQSSGLYSLSSVVTVPSSSLGTQTYICNVNHKPSNTKVDKKVEPKSCDKTHTCPPCPAPEFEGGPSVFLFPPKPKDTLMISRTPEVTCVVVDVSHEDPEVKFNWYVDGVEVHNAKTKPREEQYNSTYRVVSVLTVLHQDWLNGKEYKCKVSNKALPASIEKTISKAKGQPREPQVYTLPPCRDELTKNQVSLWCLVKGFYPSDIAVEWESNGQPENNYKTTPPVLDSDGSFFLYSKLTVDKSRWQQGNVFSCSVMHEALHNHYTQKSLSLSPGK
light: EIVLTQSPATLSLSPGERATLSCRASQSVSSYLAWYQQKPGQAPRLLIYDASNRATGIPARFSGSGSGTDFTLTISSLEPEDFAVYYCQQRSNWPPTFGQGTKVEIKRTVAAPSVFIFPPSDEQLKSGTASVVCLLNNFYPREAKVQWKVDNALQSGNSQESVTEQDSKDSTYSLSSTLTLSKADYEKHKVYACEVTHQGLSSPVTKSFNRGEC
notes: Comparative: anti-CD38 (Dara) Fab arm and anti-CD3 scFv (SP34)-Fc fusion peptide, CH2 FES
B2: Y150-F8-2 (bispecific antibody, human IgG1, kappa, N297Q)
scFv: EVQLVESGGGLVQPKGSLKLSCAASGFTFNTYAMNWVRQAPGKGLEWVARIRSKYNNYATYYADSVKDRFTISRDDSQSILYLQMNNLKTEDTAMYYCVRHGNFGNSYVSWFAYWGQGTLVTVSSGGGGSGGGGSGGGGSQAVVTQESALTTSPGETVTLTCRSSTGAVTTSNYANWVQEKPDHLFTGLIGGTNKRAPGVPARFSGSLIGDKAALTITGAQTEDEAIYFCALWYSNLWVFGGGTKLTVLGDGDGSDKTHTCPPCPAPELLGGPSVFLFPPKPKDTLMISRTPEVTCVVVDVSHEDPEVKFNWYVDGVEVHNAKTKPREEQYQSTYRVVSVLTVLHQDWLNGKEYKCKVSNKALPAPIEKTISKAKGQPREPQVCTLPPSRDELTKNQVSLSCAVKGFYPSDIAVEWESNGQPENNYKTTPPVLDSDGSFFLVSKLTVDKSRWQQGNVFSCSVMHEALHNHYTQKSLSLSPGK
heavy: B1 heavy with F239L, E240L, N302Q, S336P
light: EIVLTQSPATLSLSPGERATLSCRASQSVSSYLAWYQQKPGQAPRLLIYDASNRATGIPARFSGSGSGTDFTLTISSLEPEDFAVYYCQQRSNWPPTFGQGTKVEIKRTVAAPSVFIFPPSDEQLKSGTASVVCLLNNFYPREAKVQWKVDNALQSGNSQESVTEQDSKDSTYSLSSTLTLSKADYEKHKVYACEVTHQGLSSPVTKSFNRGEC
notes: Comparative: anti-CD38 (Dara) Fab arm and anti-CD3 scFv (SP34)-Fc fusion peptide, CH2 N297Q
B3: Y150-F9-7 (bispecific antibody, human IgG1, lambda)
scFv: QVQLVESGGGVVQPGRSLRLSCAASGFTFSTYAMNWVRQAPGKGLEWVARIRSKYNNYATYYADSVKDRFTISRDDSKNTLYLQMNSLRAEDTAVYYCARHGNFGNSYVSWFAYWGQGTLVTVSSGGGGSGGGGSGGGGSQTVVTQEPSLTVSPGGTVTLTCRSSTGAVTTSNYANWVQQKPGQAPRGLIGGTNKRAPGVPARFSGSLLGGKAALTLSGVQPEDEAEYYCALWYSNLWVFGGGTKVEIKGGGGSDKTHTCPPCPAPEFEGGPSVFLFPPKPKDTLMISRTPEVTCVVVDVSHEDPEVKFNWYVDGVEVHNAKTKPREEQYNSTYRVVSVLTVLHQDWLNGKEYKCKVSNKALPASIEKTISKAKGQPREPQVCTLPPSRDELTKNQVSLSCAVKGFYPSDIAVEWESNGQPENNYKTTPPVLDSDGSFFLVSKLTVDKSRWQQGNVFSCSVMHEALHNHYTQKSLSLSPGK
heavy: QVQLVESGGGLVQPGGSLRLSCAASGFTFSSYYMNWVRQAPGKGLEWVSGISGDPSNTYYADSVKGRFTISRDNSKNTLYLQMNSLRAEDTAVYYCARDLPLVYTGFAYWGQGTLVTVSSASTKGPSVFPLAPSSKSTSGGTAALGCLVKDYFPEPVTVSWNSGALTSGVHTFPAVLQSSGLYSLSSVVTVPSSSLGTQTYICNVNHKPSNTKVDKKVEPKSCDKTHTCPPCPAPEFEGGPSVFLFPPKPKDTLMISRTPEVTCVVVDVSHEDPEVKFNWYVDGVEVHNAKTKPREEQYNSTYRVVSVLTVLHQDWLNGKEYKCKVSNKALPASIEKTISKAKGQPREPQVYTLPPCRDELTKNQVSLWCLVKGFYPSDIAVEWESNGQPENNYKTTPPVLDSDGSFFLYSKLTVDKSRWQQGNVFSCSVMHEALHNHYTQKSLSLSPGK
light: DIELTQPPSVSVAPGQTARISCSGDNLRHYYVYWYQQKPGQAPVLVIYGDSKRPSGIPERFSGSNSGNTATLTISGTQAEDEADYYCQTYTGGASLVFGGGTKLTVLGQPKAAPSVTLFPPSSEELQANKATLVCLISDFYPGAVTVAWKADSSPVKAGVETTTPSKQSNNKYAASSYLSLTPEQWKSHRSYSCQVTHEGSTVEKTVAPTECS
B4: IC-6 (bispecific antibody, human IgG1, kappa)
scFv: B3 scFv with Q1E, V11L, R16G, L120M, T142A, R163G, V220A, V246L
heavy: EVKLDETGGGLVQPGRPMKLSCVASGFTFSDYWMNWVRQSPEKGLEWVAQIRNKPYNYETYYSDSVKGRFTISRDDSKSSVYLQMNNLRVEDMGIYYCTGSYYGMDYWGQGTSVTVSSASTKGPSVFPLAPSSKSTSGGTAALGCLVKDYFPEPVTVSWNSGALTSGVHTFPAVLQSSGLYSLSSVVTVPSSSLGTQTYICNVNHKPSNTKVDKKVEPKSCDKTHTCPPCPAPEFEGGPSVFLFPPKPKDTLMISRTPEVTCVVVDVSHEDPEVKFNWYVDGVEVHNAKTKPREEQYNSTYRVVSVLTVLHQDWLNGKEYKCKVSNKALPASIEKTISKAKGQPREPQVYTLPPCRDELTKNQVSLWCLVKGFYPSDIAVEWESNGQPENNYKTTPPVLDSDGSFFLYSKLTVDKSRWQQGNVFSCSVMHEALHNHYTQKSLSLSPGK
light: DVVMTQTPLSLPVSLGDQASISCRSSQSLVHSNGNTYLRWYLQKPGQSPKVLIYKVSNRFSGVPDRFSGSGSGTDFTLKISRVEAEDLGVYFCSQSTHVPWTFGGGTKLEIKRTVAAPSVFIFPPSDEQLKSGTASVVCLLNNFYPREAKVQWKVDNALQSGNSQESVTEQDSKDSTYSLSSTLTLSKADYEKHKVYACEVTHQGLSSPVTKSFNRGEC
notes: Comparative: 4420 Fab arm and anti-CD3 scFv (CD3 antibody 1 VH, CD3 antibody 2 VL)-Fc fusion peptide
B5: IC-4 (bispecific antibody, human IgG1, kappa)
scFv: B3 scFv with Q1E, V11L, R16G, L120M, T142A, V200T, V246L, E247T, I248V, K249L
heavy: B4 heavy
light: B4 light
notes: Comparative: 4420 Fab arm and anti-CD3 scFv (CD3 antibody 1 VH/VL)-Fc fusion peptide
B6: MS-hCD3-IC16 (bispecific antibody, human IgG1, kappa)
scFv: B3 scFv
heavy: B4 heavy
light: B4 light
notes: 4420 Fab arm and anti-CD3 scFv (VH2a/VL5)-Fc fusion peptide, CH2 FES
B7: IC-5 (bispecific antibody, human IgG1, kappa)
scFv: B3 scFv with Q1E, V11L, R16G, S30N, A49G, D68G, T142A, R163G, V220A, V246L
heavy: B4 heavy
light: B4 light
notes: Comparative: 4420 Fab arm and anti-CD3 scFv (CD3 antibody 2 VH/VL)-Fc fusion peptide
B8: MS-hCD3-IC17 (bispecific antibody, human IgG1, kappa)
scFv: QVQLVESGGGVVQPGRSLRLSCAASGFTFSTYAMNWVRQAPGKGLEWVARIRSKYNNYATYYADSVKDRFTISRDDSKNTLYLQMNSLRAEDTAVYYCARHGNFGNSYVSWFAYWGQGTLVTVSSGGGGSGGGGSGGGGSQTVVTQEPSLTVSPGGTVTLTCRSSTGAVTTSNYANWVQQKPGQAPRGLIGGTNKRAPGVPARFSGSLLGGKAALTLSGVQPEDEAEYYCALWYSNLWVFGGGTKVEIKGGGGSDKTHTCPPSPAPPVAGPSVFLFPPKPKDTLMISRTPEVTCVVVDVSHEDPEVQFNWYVDGVEVHNAKTKPREEQFNSTFRVVSVLTVVHQDWLNGKEYKCKVSNKGLPAPIEKTISKTKGQPREPQVCTLPPSRDELTKNQVSLSCAVKGFYPSDIAVEWESNGQPENNYKTTPPVLDSDGSFFLVSKLTVDKSRWQQGNVFSCSVMHEALHNHYTQKSLSLSPGK
heavy: EVKLDETGGGLVQPGRPMKLSCVASGFTFSDYWMNWVRQSPEKGLEWVAQIRNKPYNYETYYSDSVKGRFTISRDDSKSSVYLQMNNLRVEDMGIYYCTGSYYGMDYWGQGTSVTVSSASTKGPSVFPLAPSSKSTSGGTAALGCLVKDYFPEPVTVSWNSGALTSGVHTFPAVLQSSGLYSLSSVVTVPSSSLGTQTYICNVNHKPSNTKVDKKVEPKSCDKTHTCPPSPAPPVAGPSVFLFPPKPKDTLMISRTPEVTCVVVDVSHEDPEVQFNWYVDGVEVHNAKTKPREEQFNSTFRVVSVLTVVHQDWLNGKEYKCKVSNKGLPAPIEKTISKTKGQPREPQVYTLPPCRDELTKNQVSLWCLVKGFYPSDIAVEWESNGQPENNYKTTPPVLDSDGSFFLYSKLTVDKSRWQQGNVFSCSVMHEALHNHYTQKSLSLSPGK
light: B4 light
notes: 4420 Fab arm and anti-CD3 scFv (VH2a/VL5)-Fc fusion peptide, CH2 SG2; also called MS-hCD3-17
B9: IC-2 (bispecific antibody, human IgG1, kappa)
scFv: B1 scFv
heavy: B4 heavy
light: B4 light
notes: Comparative: 4420 Fab arm and anti-CD3 scFv (SP34)-Fc fusion peptide, CH2 FES
B10: MS-hCD3-IC18 (bispecific antibody, human IgG1, kappa)
scFv: B8 scFv with F112A, V178F
heavy: B8 heavy
light: B4 light
notes: 4420 Fab arm and anti-CD3 scFv (VH2j/VL5a)-Fc fusion peptide, CH2 SG2
B11: IC-3 (bispecific antibody, human IgG1, kappa, N297Q)
scFv: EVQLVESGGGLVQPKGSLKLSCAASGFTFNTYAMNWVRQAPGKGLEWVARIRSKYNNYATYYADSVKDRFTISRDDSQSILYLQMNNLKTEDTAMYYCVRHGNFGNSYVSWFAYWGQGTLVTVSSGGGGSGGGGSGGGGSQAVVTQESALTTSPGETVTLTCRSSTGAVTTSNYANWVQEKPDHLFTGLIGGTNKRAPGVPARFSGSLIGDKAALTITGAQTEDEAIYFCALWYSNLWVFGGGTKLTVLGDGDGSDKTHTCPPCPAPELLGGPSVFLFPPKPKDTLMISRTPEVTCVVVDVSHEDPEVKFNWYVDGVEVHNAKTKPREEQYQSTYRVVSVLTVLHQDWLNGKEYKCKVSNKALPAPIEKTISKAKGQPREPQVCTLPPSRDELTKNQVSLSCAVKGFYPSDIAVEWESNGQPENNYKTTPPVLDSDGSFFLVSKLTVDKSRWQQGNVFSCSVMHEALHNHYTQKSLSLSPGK
heavy: B4 heavy with F235L, E236L, N298Q, S332P
light: B4 light
notes: Comparative: 4420 Fab arm and anti-CD3 scFv (SP34)-Fc fusion peptide, CH2 N297Q

target: T1, monkey CD3 (monkey); assay: flow cytometry on monkey CD3 positive T cells
T1 construct: whole, on cells; also called CD3 on monkey CD3 positive T cells

Binder | EC50
B1 | 152 nM
B2 | 102 nM
B3 | 422 nM
B4 | 154 nM
B5 | 296 nM
B6 | 295 nM
B7 | 161 nM
B8 | 222 nM
B9 | 312 nM
B10 | 680 nM
B11 | 285 nM

target: T2, human CD3 (human, UniProt P07766 23-207); assay: flow cytometry on human CD3 positive T cells
T2 construct: whole, on cells; Assays used CD3 positive T cells (or CIK cells) from human blood; also called Human CD3ϵ; CD3 on human CD3 positive T cells

Binder | EC50
B3 | 426 nM
B4 | 118 nM
B5 | 197 nM
B6 | 170 nM
B7 | 122 nM
B8 | 122 nM
B9 | 172 nM
B10 | 582 nM
B11 | 155 nM

target: T3, Human CD38 (human, UniProt P28907 1-300); assay: flow cytometry on CD38 positive tumor cells (MM.1S or RPMI 8226)
T3 construct: whole, on cells; the assays used the protein on tumor cells

Binder | EC50
B3 | 103 nM
